The chains are these.
B1: TCF24 (protein, UniProt Q7RTU0 1-167, looked up)
Transcription factor 24: MDRGRPAGSPLSASAEPAPLAAAIRDSRPGRTGPGPAGPGGGSRSGSGRPAAANAARERSRVQTLRHAFLELQRTLPSVPPDTKLSKLDVLLLATTYIAHLTRSLQDDAEAPADAGLGALRGDGYLHPVKKWPMRSRLYIGATGQFLKHSVSGEKTNHDNTPTDSQP
B2: TERF2 (protein, UniProt O35144 1-541, looked up)
Telomeric repeat-binding …: MAAGAGTAGPASGPGVVRDPMASQPRKRPSREGGEGGEGERRSNTMAGGGGSSDSSGRAASRRASRSGGRARRGRHEPGLGGAAERGAGEARLEEAVNRWVLKFYFHEALRAFRSSRYRDFRQIRDIMQALLVRPLGKEHTVSRLLRVMQCLSRIEEGENLDCSFDMEAELTPLESAINVLEMIKTEFTLTDSMVESSRKLVKEAAVIICIKNKEFEKASKILKKYMSKDPTTQKLRTDLLNIIREKNLAHPVIQNFSYEVFQQKMLRFLESHLDDTEPYLLTMAKKALKSESAASSTMREEKHPEPVEKPLREPPSRQPQNPPATIGIRTLKAAFKALSTAQDSEAAFAKLDQKDLVLANLASPSSPAHKHKRPRKDEHESAAPAEGEGGSDRQPRNSPMTISRLLLEEDSQSTEPSPGLNSSHKAMSASKPRALNQPHPGEKKPKASKDKWNSPNGLEEKEVWLEEDQLFEVQAPGEDRSSSLTRKQKWTIEESEWVKDGVRKYGEGNWAAISKSYPFVNRTAVMIKDRWRTMKKLGMN
B3: TBX20 (protein, UniProt Q9UMR3 1-447, looked up)
T-box transcription factor …: MEFTASPKPQLSSRANAFSIAALMSSGGSKEKEATENTIKPLEQFVEKSSCAQPLGELTSLDAHGEFGGGSGSSPSSSSLCTEPLIPTTPIIPSEEMAKIACSLETKELWDKFHELGTEMIITKSGRRMFPTIRVSFSGVDPEAKYIVLMDIVPVDNKRYRYAYHRSSWLVAGKADPPLPARLYVHPDSPFTGEQLLKQMVSFEKVKLTNNELDQHGHIILNSMHKYQPRVHIIKKKDHTASLLNLKSEEFRTFIFPETVFTAVTAYQNQLITKLKIDSNPFAKGFRDSSRLTDIERESVESLIQKHSYARSPIRTYGGEEDVLGDESQTTPNRGSAFTTSDNLSLSSWVSSSSSFPGFQHPQSLTALGTSTASIATPIPHPIQGSLPPYSRLGMPLTPSAIASSMQGSGPTFPSFHMPRYHHYFQQGPYAAIQGLRHSSAVMTPFV
B4: TBR1 (protein, UniProt Q16650 1-682, looked up)
T-box brain protein 1: MQLEHCLSPSIMLSKKFLNVSSSYPHSGGSELVLHDHPIISTTDNLERSSPLKKITRGMTNQSDTDNFPDSKDSPGDVQRSKLSPVLDGVSELRHSFDGSAADRYLLSQSSQPQSAATAPSAMFPYPGQHGPAHPAFSIGSPSRYMAHHPVITNGAYNSLLSNSSPQGYPTAGYPYPQQYGHSYQGAPFYQFSSTQPGLVPGKAQVYLCNRPLWLKFHRHQTEMIITKQGRRMFPFLSFNISGLDPTAHYNIFVDVILADPNHWRFQGGKWVPCGKADTNVQGNRVYMHPDSPNTGAHWMRQEISFGKLKLTNNKGASNNNGQMVVLQSLHKYQPRLHVVEVNEDGTEDTSQPGRVQTFTFPETQFIAVTAYQNTDITQLKIDHNPFAKGFRDNYDTIYTGCDMDRLTPSPNDSPRSQIVPGARYAMAGSFLQDQFVSNYAKARFHPGAGAGPGPGTDRSVPHTNGLLSPQQAEDPGAPSPQRWFVTPANNRLDFAASAYDTATDFAGNAATLLSYAAAGVKALPLQAAGCTGRPLGYYADPSGWGARSPPQYCGTKSGSVLPCWPNSAAAAARMAGANPYLGEEAEGLAAERSPLPPGAAEDAKPKDLSDSSWIETPSSIKSIDSSDSGIYEQAKRRRISPADTPVSESSSPLKSEVLAQRDCEKNCAKDISGYYGFYSHS
B5: TCFL5 (protein, UniProt Q9UL49 1-500, looked up)
Transcription factor-like 5 …: MSGPGPREPPPEAGAAGGEAAVEGAGGGDAALGEPGLSFTTTDLSLVEMTEVEYTQLQHILCSHMEAAADGELETRLNSALLAAAGPGAGAGGFAAGGQGGAAPVYPVLCPSALAADAPCLGHIDFQELRMMLLSEAGAAEKTSGGGDGARARADGAAKEGAGAAAAAAGPDGAPEARAKPAVRVRLEDRFNSIPAEPPPAPRGPEPPEPGGALNNLVTLIRHPSELMNVPLQQQNKCTALVKNKTAATTTALQFTYPLFTTNACSTSGNSNLSQTQSSSNSCSVLEAAKHQDIGLPRAFSFCYQQEIESTKQTLGSRNKVLPEQVWIKVGEAALCKQALKRNRSRMRQLDTNVERRALGEIQNVGEGATATQGAWQSSESSQANLGEQAQSGPQGGRSQRRERHNRMERDRRRRIRICCDELNLLVPFCNAETDKATTLQWTTAFLKYIQERHGDSLKKEFESVFCGKTGRRLKLTRPDSLVTCPAQGSLQSSPSMEIK
B6: TFEC (protein, UniProt O14948 1-347, looked up)
Transcription factor EC: MTLDHQIINPTLKWSQPAVPSGGPLVQHAHTTLDSDAGLTENPLTKLLAIGKEDDNAQWHMEDVIEDIIGMESSFKEEGADSPLLMQRTLSGSILDVYSGEQGISPINMGLTSASCPSSLPMKREITETDTRALAKERQKKDNHNLIERRRRYNINYRIKELGTLIPKSNDPDMRWNKGTILKASVEYIKWLQKEQQRARELEHRQKKLEQANRRLLLRIQELEIQARTHGLPTLASLGTVDLGAHVTKQQSHPEQNSVDYCQQLTVSQGPSPELCDQAIAFSDPLSYFTDLSFSAALKEEQRLDGMLLDDTISPFGTDPLLSATSPAVSKESSRRSSFSSDDGDEL
B7: TCF25 (protein, UniProt Q9BQ70 1-676, looked up)
Ribosome quality control …: MSRRALRRLRGEQRGQEPLGPGALHFDLRDDDDAEEEGPKRELGVRRPGGAGKEGVRVNNRFELINIDDLEDDPVVNGERSGCALTDAVAPGNKGRGQRGNTESKTDGDDTETVPSEQSHASGKLRKKKKKQKNKKSSTGEASENGLEDIDRILERIEDSTGLNRPGPAPLSSRKHVLYVEHRHLNPDTELKRYFGARAILGEQRPRQRQRVYPKCTWLTTPKSTWPRYSKPGLSMRLLESKKGLSFFAFEHSEEYQQAQHKFLVAVESMEPNNIVVLLQTSPYHVDSLLQLSDACRFQEDQEMARDLVERALYSMECAFHPLFSLTSGACRLDYRRPENRSFYLALYKQMSFLEKRGCPRTALEYCKLILSLEPDEDPLCMLLLIDHLALRARNYEYLIRLFQEWEAHRNLSQLPNFAFSVPLAYFLLSQQTDLPECEQSSARQKASLLIQQALTMFPGVLLPLLESCSVRPDASVSSHRFFGPNAEISQPPALSQLVNLYLGRSHFLWKEPATMSWLEENVHEVLQAVDAGDPAVEACENRRKVLYQRAPRNIHRHVILSEIKEAVAALPPDVTTQSVMGFDPLPPSDTIYSYVRPERLSPISHGNTIALFFRSLLPNYTMEGERPEEGVAGGLNRNQGLNRLMLAVRDMMANFHLNDLEAPHEDDAEGEGEWD
B8: TCF21 (protein, UniProt O43680 1-179, looked up)
Transcription factor 21: MSTGSLSDVEDLQEVEMLECDGLKMDSNKEFVTSNESTEESSNCENGSPQKGRGGLGKRRKAPTKKSPLSGVSQEGKQVQRNAANARERARMRVLSKAFSRLKTTLPWVPPDTKLSKLDTLRLASSYIAHLRQILANDKYENGYIHPVNLTWPFMVAGKPESDLKEVVTASRLCGTTAS
B9: TBX19 (protein, UniProt Q99ME7 1-446, looked up)
T-box transcription factor …: MSELATQKAGEGTVSRLLNVVESELQAGREKGDPTEKQLQIILEDAPLWQRFKEVTNEMIVTKNGRRMFPVLKISVTGLDPNAMYSLLLDFVRTDSHRWKYVNGEWVPAGKPEVSSHSCVYIHPDSPNFGAHWMKAPISFSKVKLTNKLNGGGQIMLNSLHKYEPQVHIVRVGGAHRMVMNCSFPETQFIAVTAYQNEEITALKIKYNPFAKAFLDAKERNHLKDVPEAISESQHVTYSHLGGWILSNPDGVCTAANSNYQYATPLPLPAPHTHHGCEHYAGLRGHRQAPYPSAYMHRNHSPSVNLIESSSNNLQVFSGPDSWTSLSSTPHASILSVPHSNGPINPGPSPYPCLWTISNGGGGPVASGSEVHASTSGTILLGNPAVTSPSSLLPTQATTSAGVEVLGEPSLTSIAVSTWTAVASHPLPGWGGPGGAGRHSSSSLDS
B10: TCEB2 (protein, UniProt Q15370 1-118, looked up)
Elongin-B: MDVFLMIRRHKTTIFTDAKESSTVFELKRIVEGILKRPPDEQRLYKDDQLLDDGKTLGECGFTSQTARPQAPATVGLAFRADDTFEALCIEPFSSPPELPDVMKPQDSGSSANEQAVQ
B11: TCF15 (protein, UniProt Q12870 1-199, looked up)
Transcription factor 15: MAFALLRPVGAHVLYPDVRLLSEDEENRSESDASDQSFGCCEGPEAARRGPGPGGGRRAGGGGGAGPVVVVRQRQAANARERDRTQSVNTAFTALRTLIPTEPVDRKLSKIETVRLASSYIAHLANVLLLGDSADDGQPCFRAAGSAKGAVPAAADGGRQPRSICTFCLSNQRKGGGRRDLGGSCLKVRGVAPLRGPRR
B12: TBX6 (protein, UniProt O95947 1-436, looked up)
T-box transcription factor …: MYHPRELYPSLGAGYRLGPAQPGADSSFPPALAEGYRYPELDTPKLDCFLSGMEAAPRTLAAHPPLPLLPPAMGTEPAPSAPEALHSLPGVSLSLENRELWKEFSSVGTEMIITKAGRRMFPACRVSVTGLDPEARYLFLLDVIPVDGARYRWQGRRWEPSGKAEPRLPDRVYIHPDSPATGAHWMRQPVSFHRVKLTNSTLDPHGHLILHSMHKYQPRIHLVRAAQLCSQHWGGMASFRFPETTFISVTAYQNPQITQLKIAANPFAKGFRENGRNCKRERDARVKRKLRGPEPAATEAYGSGDTPGGPCDSTLGGDIRESDPEQAPAPGEATAAPAPLCGGPSAEAYLLHPAAFHGAPSHLPTRSPSFPEAPDSGRSAPYSAAFLELPHGSGGSGYPAAPPAVPFAPHFLQGGPFPLPYTAPGGYLDVGSKPMY
B13: TFDP3 (protein, UniProt Q5H9I0 1-405, looked up)
Transcription factor Dp …: MAKYVSLTEANEELKVLMDENQTSRPVAVHTSTVNPLGKQLLPKTFGQSSVNIDQQVVIGMPQRPAASNIPVVGSPNPPSTHFASQNQHSYSSPPWAGQHNRKGEKNGMGLCRLSMKVWETVQRKGTTSCQEVVGELVAKFRAASNHASPNESAYDVKNIKRRTYDALNVLMAMNIISREKKKIKWIGLTTNSAQNCQNLRVERQKRLERIKQKQSELQQLILQQIAFKNLVLRNQYVEEQVSQRPLPNSVIHVPFIIISSSKKTVINCSISDDKSEYLFKFNSSFEIHDDTEVLMWMGMTFGLESGSCSAEDLKMARNLVPKALEPYVTEMAQGTFGGVFTTAGSRSNGTWLSASDLTNIAIGMLATSSGGSQYSGSRVETPAVEEEEEEDNNDDDLSENDEDD

For the assay, the system named is HEK293FT cells transfected with TF library. Nature of the assay: Screening of TF condensates based on fluorescent puncta. The format is cell-based. Particulars: Figure 1B numerical data; TF library screen, one value per transcriptional factor. A digest of the protocol: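 TF plasmids (final 1.6 μg/ml) reverse-transfected with PEI (4.8 μg/ml) into HEK293FT cells; after 60 h, cells cultured ±glucose for 12 h, fixed in 4% PFA and immunostained for Flag or GAL4 tags with Alexa 488 secondaries. Puncta scored by automated imaging of 50 random fields per well.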
Regarding B1, the “Z score of condensed fraction” value is on record as -0.9879.

For the molecule B2, the “Z score of condensed fraction” value turned out to be 0.4642.

Consider B3, for which the “Z score of condensed fraction” value turned out to be 0.6837.

Take B4: the “Z score of condensed fraction” value was -0.7739.

B5: the “Z score of condensed fraction” value is on record as -0.869.

For the molecule B6, the “Z score of condensed fraction” value worked out at 1.616.

With B7, the “Z score of condensed fraction” value stood at 2.145.

With B8, the “Z score of condensed fraction” value worked out at 0.06751.

For the molecule B9, the “Z score of condensed fraction” value is 1.015.

Consider B10, for which the “Z score of condensed fraction” value is -0.4277.

Regarding B11, the “Z score of condensed fraction” value was 0.7138.

Regarding B12, the “Z score of condensed fraction” value is -0.7283.

B13: the “Z score of condensed fraction” value worked out at 0.6635.

Values taken from PMC11574045, “A cofactor-induced repressive type of transcription factor condensation can be induced by synthetic peptides to suppress tumorigenesis” (The EMBO Journal, 2024).
